Test in all cases: cell-based or functional assay
For test [1], the target named is SF162 (envelope of the HIV-1 pseudovirus) (HIV-1).
In test [2] the target is SVPB14 (envelope of the HIV-1 pseudovirus) (HIV-1).
In test [3] the target is SVPB12 (envelope of the HIV-1 pseudovirus) (HIV-1).
In test [4] the target is HIV2 (envelope of the indicator virus, without sCD4) (HIV-2).
Test [5] has as its target BaL.01 (envelope of the HIV-1 pseudovirus) (HIV-1).
Test [6] addresses SVPB5 (envelope of the HIV-1 pseudovirus) (HIV-1).
Test [7] deals with SVPB17 (envelope of the HIV-1 pseudovirus) (HIV-1).
Test [8] addresses JRFL (envelope of the HIV-1 pseudovirus) (HIV-1).
For test [9], the target named is MuLV (envelope of the control pseudovirus) (MuLV).
In test [10] the target is ADA (envelope of the HIV-1 pseudovirus) (HIV-1).
In test [11] the target is SVPB16 (envelope of the HIV-1 pseudovirus) (HIV-1).

Take HIV-1 CD4i mAb 17b (antibody): the IC50 (ug/ml) neutralization in [1] is 30 µg/mL; in test [2] it was > 30 µg/mL; in test [3], > 30 µg/mL; in [4], 10 µg/mL; in [5], > 30 µg/mL; in [6], > 30 µg/mL. Besides, the IC50 (ug/ml) neutralization in test [7], in test [8], in test [9], in test [10] and in test [11] was > 30 µg/mL in each case.

For the substance “broadly neutralizing mAb 2G12 (antibody)”, the IC50 (ug/ml) neutralization in test [1] is 0.5 µg/mL; in test [2] it was > 25 µg/mL; in test [3], 0.3 µg/mL; in [4], > 25 µg/mL; in test [5] it was 1 µg/mL; in test [6] it was 8 µg/mL. Moreover, the IC50 (ug/ml) neutralization is > 25 µg/mL in test [7]; 0.3 µg/mL in [8]; > 25 µg/mL in test [9]; 12 µg/mL in [10]; > 25 µg/mL in test [11].

For the substance CD4bs mAb b12 (antibody), the IC50 (ug/ml) neutralization is < 0.1 µg/mL in test [1]; 0.3 µg/mL in test [2]; > 30 µg/mL in test [3]; > 30 µg/mL in test [4]; 0.2 µg/mL in test [5]; 18 µg/mL in [6]. Besides, the IC50 (ug/ml) neutralization in [7] was > 30 µg/mL; in [8], < 0.1 µg/mL; in [9], > 30 µg/mL; in [10], 1.2 µg/mL; in test [11] it was 12 µg/mL.

As to E51 (antibody), the IC50 (ug/ml) neutralization in test [1] was 45 µg/mL; in test [2], > 30 µg/mL; in test [3], > 30 µg/mL; in test [4], > 30 µg/mL; in test [5], > 30 µg/mL; in [6], > 30 µg/mL. Besides, the IC50 (ug/ml) neutralization in test [7], in test [8], in [9], in [10] and in [11] was > 30 µg/mL throughout.

In the case of HIV-1 CD4i mAb 19e (antibody), the IC50 (ug/ml) neutralization in [1], in test [2], in test [3], in [4], in test [5] and in test [6] was > 30 µg/mL throughout. Moreover, the IC50 (ug/ml) neutralization in test [7], in test [8], in test [9], in [10] and in test [11] was > 30 µg/mL in each case.
